Test results as given in PMC8584998, “Arabidopsis FHY3 and FAR1 Function in Age Gating of Leaf Senescence”.

Target: T1, MBP-EIN3N (UniProt O24606 141-352)
T1 sequence: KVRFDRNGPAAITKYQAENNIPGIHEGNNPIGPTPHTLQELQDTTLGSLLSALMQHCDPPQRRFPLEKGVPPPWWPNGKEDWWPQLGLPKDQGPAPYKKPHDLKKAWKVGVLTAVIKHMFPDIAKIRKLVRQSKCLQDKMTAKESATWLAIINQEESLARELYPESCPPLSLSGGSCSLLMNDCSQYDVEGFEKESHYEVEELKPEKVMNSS
Assay: EMSA; LightShift Chemiluminescent EMSA kit (Pierce), 10 min at room temperature, 6% native polyacrylamide gel; buffer, salt and pH not stated
Conditions: protein: recombinant; tags: MBP; chain copies: 2; label: biotin; blunt

B1: ORE1 EBS (dsDNA)
DNA 1: ATACTTTACAAGGTTCATGCATGCATAC
DNA 2: GTATGCATGCATGAACCTTGTAAAGTAT
B1: binds.
